For test [1], the target named is hyper-galactosylated (G2 F) variant of the mAb. In words: native MS.
In test [2] the target is α-2,6-sialic acid variant (ST6) of the mAb. In words: native MS.

In test [1], “recombinant Human Fc gamma RIIIa/CD16a (V176) protein (from UniProt P08637 17-208) (receptor)” came in with a fold change of binding affinity against G0 F of 1.5 fold. Besides, the fold change of binding affinity against ST3 in test [2] was found to be 1.72 fold.

Values taken from paper PMC7153833.
